Experimental data taken from the supplement of paper PMC9112550, “Optimization of the antimicrobial peptide Bac7 by deep mutational scanning” (BMC Biology, 2022).
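Also: peptides expressed intracellularly from a pBAD plasmid library in pooled LB shake-flask culture, induced with 0.3% L-arabinose, DNA abundance read by NGS, three biological replicates, DESeq2 with apeglm shrinkage.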

What follows are sequences tested on Escherichia coli TOP10 (assay: shrunken log2 fold change of peptide-encoding DNA abundance (4.5 h post-induction vs induction); higher = less antimicrobial activity (less host growth inhibition)). Details: time post-induction: 4.5 h; library: site-saturation at positions 5, 18, 19, 20.
RRIRGRPPRLPRPRPRPLYTPRP was tested, and the “shrunken log2 fold change” value was 0.145.
In the case of RRIRHRPPRLPRPRPRPTIGPRP, the “shrunken log2 fold change” value is reported as -0.0227.
For RRIRMRPPRLPRPRPRPRGRPRP, the “shrunken log2 fold change” value was 1.2.
For RRIRARPPRLPRPRPRPMTCPRP, the “shrunken log2 fold change” value was -0.29.
With RRIRSRPPRLPRPRPRPGVVPRP the “shrunken log2 fold change” value was 0.295.
In the case of RRIRLRPPRLPRPRPRPYIHPRP, the “shrunken log2 fold change” value is reported as -1.05.
RRIRFRPPRLPRPRPRPSEKPRP was tested, and the “shrunken log2 fold change” value was 0.0358.
RRIRFRPPRLPRPRPRPFMFPRP was tested, and the “shrunken log2 fold change” value was -0.739.
RRIRIRPPRLPRPRPRPNCHPRP was tested, and the “shrunken log2 fold change” value was -0.232.
With RRIRTRPPRLPRPRPRPTLTPRP the “shrunken log2 fold change” value was 0.0461.
RRIRRRPPRLPRPRPRPRRWPRP was tested, and the “shrunken log2 fold change” value was 0.386.
RRIRCRPPRLPRPRPRPTSVPRP was tested, and the “shrunken log2 fold change” value was 0.0631.
With RRIRHRPPRLPRPRPRPTDHPRP the “shrunken log2 fold change” value was -0.487.
For RRIRCRPPRLPRPRPRPVDTPRP, the “shrunken log2 fold change” value was -0.0338.
For RRIRGRPPRLPRPRPRPEWHPRP, the “shrunken log2 fold change” value was 0.386.
In the case of RRIRFRPPRLPRPRPRPDRTPRP, the “shrunken log2 fold change” value is reported as -0.0783.
With RRIRPRPPRLPRPRPRPMWGPRP the “shrunken log2 fold change” value was 0.0327.
For RRIRTRPPRLPRPRPRPWDHPRP, the “shrunken log2 fold change” value was -0.155.
In the case of RRIRVRPPRLPRPRPRPCFPPRP, the “shrunken log2 fold change” value is reported as 0.228.
With RRIRVRPPRLPRPRPRPILKPRP the “shrunken log2 fold change” value was -0.203.
In the case of RRIRLRPPRLPRPRPRPARWPRP, the “shrunken log2 fold change” value is reported as 0.284.
RRIRKRPPRLPRPRPRPGGSPRP was tested, and the “shrunken log2 fold change” value was 0.178.
For RRIRSRPPRLPRPRPRPTVKPRP, the “shrunken log2 fold change” value was -0.188.
In the case of RRIRGRPPRLPRPRPRPTCDPRP, the “shrunken log2 fold change” value is reported as 0.432.
With RRIRIRPPRLPRPRPRPLTDPRP the “shrunken log2 fold change” value was -0.201.
RRIRARPPRLPRPRPRPLQQPRP was tested, and the “shrunken log2 fold change” value was 0.752.
With RRIRFRPPRLPRPRPRPPWSPRP the “shrunken log2 fold change” value was 0.204.
RRIRPRPPRLPRPRPRPDRLPRP was tested, and the “shrunken log2 fold change” value was 0.48.
With RRIRYRPPRLPRPRPRPPSFPRP the “shrunken log2 fold change” value was 0.0588.
In the case of RRIRLRPPRLPRPRPRPEIEPRP, the “shrunken log2 fold change” value is reported as -0.0912.
RRIRTRPPRLPRPRPRPLAHPRP was tested, and the “shrunken log2 fold change” value was -0.256.
RRIRERPPRLPRPRPRPLFLPRP was tested, and the “shrunken log2 fold change” value was -0.306.
RRIRWRPPRLPRPRPRPTEGPRP was tested, and the “shrunken log2 fold change” value was 0.0765.
RRIRQRPPRLPRPRPRPPMYPRP was tested, and the “shrunken log2 fold change” value was -0.269.
With RRIRPRPPRLPRPRPRPCSRPRP the “shrunken log2 fold change” value was 0.0759.
For RRIRCRPPRLPRPRPRPDHKPRP, the “shrunken log2 fold change” value was -1.04.
For RRIRMRPPRLPRPRPRPIQMPRP, the “shrunken log2 fold change” value was -0.0558.
In the case of RRIRWRPPRLPRPRPRPCMDPRP, the “shrunken log2 fold change” value is reported as -0.18.
RRIRCRPPRLPRPRPRPACNPRP was tested, and the “shrunken log2 fold change” value was -0.0286.
With RRIRARPPRLPRPRPRPDSWPRP the “shrunken log2 fold change” value was 0.508.
For RRIRVRPPRLPRPRPRPDAFPRP, the “shrunken log2 fold change” value was 0.203.
With RRIRIRPPRLPRPRPRPSELPRP the “shrunken log2 fold change” value was -0.186.
With RRIRLRPPRLPRPRPRPLCMPRP the “shrunken log2 fold change” value was -0.467.
In the case of RRIRHRPPRLPRPRPRPVDPPRP, the “shrunken log2 fold change” value is reported as -0.0989.
In the case of RRIRFRPPRLPRPRPRPRSWPRP, the “shrunken log2 fold change” value is reported as 0.135.
In the case of RRIRFRPPRLPRPRPRPSLIPRP, the “shrunken log2 fold change” value is reported as -1.06.
RRIRQRPPRLPRPRPRPMFKPRP was tested, and the “shrunken log2 fold change” value was -0.572.
In the case of RRIRPRPPRLPRPRPRPWHQPRP, the “shrunken log2 fold change” value is reported as 0.0649.
In the case of RRIRTRPPRLPRPRPRPPVWPRP, the “shrunken log2 fold change” value is reported as 0.0152.
With RRIRSRPPRLPRPRPRPNNNPRP the “shrunken log2 fold change” value was -0.604.
For RRIRNRPPRLPRPRPRPMNFPRP, the “shrunken log2 fold change” value was -0.0203.
RRIRIRPPRLPRPRPRPGMDPRP was tested, and the “shrunken log2 fold change” value was -0.295.
With RRIRARPPRLPRPRPRPHQEPRP the “shrunken log2 fold change” value was 0.568.
With RRIRIRPPRLPRPRPRPFCWPRP the “shrunken log2 fold change” value was -0.0029.
For RRIRSRPPRLPRPRPRPCNGPRP, the “shrunken log2 fold change” value was -0.0821.
With RRIRMRPPRLPRPRPRPNWMPRP the “shrunken log2 fold change” value was -0.0131.
RRIRHRPPRLPRPRPRPLDNPRP was tested, and the “shrunken log2 fold change” value was -0.515.
RRIRWRPPRLPRPRPRPIRRPRP was tested, and the “shrunken log2 fold change” value was -0.00924.
With RRIRVRPPRLPRPRPRPWQSPRP the “shrunken log2 fold change” value was 0.0169.
RRIRGRPPRLPRPRPRPVIGPRP was tested, and the “shrunken log2 fold change” value was 0.388.
In the case of RRIRLRPPRLPRPRPRPSVMPRP, the “shrunken log2 fold change” value is reported as -0.199.
In the case of RRIRHRPPRLPRPRPRPYPHPRP, the “shrunken log2 fold change” value is reported as -0.495.
With RRIRARPPRLPRPRPRPKEKPRP the “shrunken log2 fold change” value was 0.0797.
In the case of RRIRRRPPRLPRPRPRPQEIPRP, the “shrunken log2 fold change” value is reported as -0.149.
With RRIRIRPPRLPRPRPRPFEKPRP the “shrunken log2 fold change” value was -0.103.
With RRIRLRPPRLPRPRPRPRQVPRP the “shrunken log2 fold change” value was -0.0496.
For RRIRCRPPRLPRPRPRPGNQPRP, the “shrunken log2 fold change” value was -0.644.
RRIRSRPPRLPRPRPRPWDPPRP was tested, and the “shrunken log2 fold change” value was 0.0317.
In the case of RRIRMRPPRLPRPRPRPCEEPRP, the “shrunken log2 fold change” value is reported as 0.0566.
For RRIRHRPPRLPRPRPRPFCRPRP, the “shrunken log2 fold change” value was -0.108.
RRIRLRPPRLPRPRPRPLCGPRP was tested, and the “shrunken log2 fold change” value was 0.161.
For RRIRTRPPRLPRPRPRPQWGPRP, the “shrunken log2 fold change” value was -0.0978.
In the case of RRIRRRPPRLPRPRPRPVTYPRP, the “shrunken log2 fold change” value is reported as -0.0642.
RRIRGRPPRLPRPRPRPGNHPRP was tested, and the “shrunken log2 fold change” value was -0.147.
For RRIRNRPPRLPRPRPRPSIRPRP, the “shrunken log2 fold change” value was -0.0225.
